From patent US20170066831A1 (Janssen / Centocor, published 2017)

T1: human ST2L extracellular domain with C-terminal His6 tag (human, UniProt Q01638 19-328)
T1 construct: also called huST2L-ECD; ST2L-ECD
T1 sequence: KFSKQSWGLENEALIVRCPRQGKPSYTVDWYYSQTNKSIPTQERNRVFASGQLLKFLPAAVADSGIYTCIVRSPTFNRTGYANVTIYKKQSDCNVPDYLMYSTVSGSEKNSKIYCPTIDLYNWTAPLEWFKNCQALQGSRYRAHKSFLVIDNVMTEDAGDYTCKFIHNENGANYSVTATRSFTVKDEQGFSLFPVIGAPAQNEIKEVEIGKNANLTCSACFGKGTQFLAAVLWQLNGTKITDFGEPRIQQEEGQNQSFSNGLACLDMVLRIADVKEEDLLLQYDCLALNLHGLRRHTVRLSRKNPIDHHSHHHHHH

T2: human ST2L, full length, on cells (human, UniProt Q01638 19-556)
T2 sequence: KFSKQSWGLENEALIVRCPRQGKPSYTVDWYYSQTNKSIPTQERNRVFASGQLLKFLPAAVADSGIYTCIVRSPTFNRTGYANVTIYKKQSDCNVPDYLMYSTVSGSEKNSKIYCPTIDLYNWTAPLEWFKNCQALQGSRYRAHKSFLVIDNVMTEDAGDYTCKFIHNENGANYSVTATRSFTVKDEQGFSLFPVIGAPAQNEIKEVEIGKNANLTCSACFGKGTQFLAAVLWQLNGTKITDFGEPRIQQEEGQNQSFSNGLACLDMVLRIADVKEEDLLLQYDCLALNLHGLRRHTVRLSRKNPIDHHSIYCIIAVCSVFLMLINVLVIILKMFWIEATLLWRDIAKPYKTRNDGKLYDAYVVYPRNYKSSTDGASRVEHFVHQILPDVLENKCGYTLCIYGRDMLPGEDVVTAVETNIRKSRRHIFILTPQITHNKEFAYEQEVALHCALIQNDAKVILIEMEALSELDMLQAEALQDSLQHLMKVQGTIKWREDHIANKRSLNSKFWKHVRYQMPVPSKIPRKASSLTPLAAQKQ

T3: cynomolgus (Macaca fascicularis) ST2L extracellular domain with C-terminal His6 tag (Macaca fascicularis (cynomolgus), UniProt Q01638 19-321 (human entry))
T3 construct: also called cyno ST2L-ECD; cynoST2L-ECD
T3 chain: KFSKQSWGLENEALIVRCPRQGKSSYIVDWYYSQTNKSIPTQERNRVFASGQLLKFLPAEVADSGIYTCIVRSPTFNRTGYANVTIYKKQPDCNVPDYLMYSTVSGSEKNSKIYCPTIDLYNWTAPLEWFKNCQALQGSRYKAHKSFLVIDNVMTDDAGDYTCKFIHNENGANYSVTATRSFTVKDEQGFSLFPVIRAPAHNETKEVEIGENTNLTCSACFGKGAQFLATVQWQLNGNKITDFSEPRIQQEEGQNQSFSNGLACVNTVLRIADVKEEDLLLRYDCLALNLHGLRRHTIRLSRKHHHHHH


What was measured:
[1] = molecular target: T1, human ST2L extracellular domain with …; assay: RLB ELISA: biotinylated IL-33 on coated huST2L-ECD, antibody titrated
Description: 96-well plate was coated with 50 μl of 4 μg/ml human ST2L-ECD (amino acids 19-328 of SEQ ID NO: 1) or 2 μg/ml cyno ST2L-ECD (amino acids 19-321 of SEQ ID NO: 2) having C-terminal His₆ tag in bicarbonate buffer at 4° C. for 16 hrs. All subsequent steps were performed at room temperature. Plate was blocked with 200 μl blocking buffer, and was washed 3 times with 300 μl of wash buffer containing PBS+0.05% Tween. 30 μl of various dilutions of anti-ST2L mAbs were added to the wells and incubated for 1 hour. For human receptor-ligand binding assay 20 μl of biotinylated human IL-33 (residues 112-270 of SEQ ID NO: 3) was added at 100 ng/ml final concentration and incubated for 30 minutes. For cyno receptor-ligand binding assay 20 μl of biotinylated cyno IL-33 (residues 112-269 of SEQ ID NO: 4) was added at 200 ng/ml final concentration and incubated for 30 minutes. The plate was washed 3 times with 300 μl of wash buffer. 50 μl of 0.2 μg/ml Streptavidin-HRP (Jackson Immunoresearch) was added and incubated for 30 min. The plate was washed 3 times with 300 μl of wash buffer containing PBS+0.05% Tween. 50 μl of TMB substrate (EMD Biosciences) was added to each well. Reaction was stopped by the addition of 100 μl of 0.2N Sulfuric Acid. OD450 were measured using Envision plate reader (Perkin Elmer).

[2] = molecular target: T2, human ST2L, full length, on cells; assay: cell-based or functional assay
[3] = molecular target: T3, cynomolgus (Macaca fascicularis) ST2L …; assay: SPR, mAb captured, ST2L-ECD in solution
[4] = molecular target: T1, human ST2L extracellular domain with …; assay: SPR, mAb captured, ST2L-ECD in solution

Binder | IC50 [1] [µg/mL] | RGA IC50 [2] [µg/mL] | Kd [3] [nM] | koff [3] [s⁻¹] | kon [3] [M⁻¹ s⁻¹] | Kd [4] [nM] | koff [4] [s⁻¹] | kon [4] [M⁻¹ s⁻¹]
STLM209 (antibody, V domains shown, frameworks VH3-23 / Vk-L6) VH: EVQLLESGGGLVQPGGSLRLSCAASGFTFSIYDMIWVRQAPGKGLEWVSTIRGEGGGTSYADSVKGRFTISRDNSKNTLYLQMNSLRAEDTAVYYCARDPWSTEGSFFVLDYWGQGTLVTVSS VL: EIVLTQSPATLSLSPGERATLSCRASQSVDDDLAWYQQKPGQAPRLLIYDASNRATGIPARFSGSGSGTDFTLTISSLEPEDFAVYYCQQYITAPLTFGQGTKVEIK | 0.32 | 0.97 | 0.009 | 0.000311 | 3.39e+07 | 0.026 | 0.00017 | 6.59e+06
STLM211 (antibody, V domains shown, frameworks VH3-23 / Vk-L6) VH: EVQLLESGGGLVQPGGSLRLSCAASGFTFSGYAMIWVRQAPGKGLEWVSYIEGEGGETYYADSVKGRFTISRDNSKNTLYLQMNSLRAEDTAVYYCARDPWSTEGSFFVLDYWGQGTLVTVSS VL: EIVLTQSPATLSLSPGERATLSCRASQSVDDDLAWYQQKPGQAPRLLIYDASNRATGIPARFSGSGSGTDFTLTISSLEPEDFAVYYCQQYNDAITFGQGTKVEIK | 0.28 | 2.52 | 0.014 | 0.00139 | 1e+08 | 0.029 | 0.000483 | 1.7e+07
STLM214 (antibody, V domains shown, frameworks VH3-23 / Vk-L6) VH: EVQLLESGGGLVQPGGSLRLSCAASGFTFSSYDMFWVRQAPGKGLEWVSDIKGEGGRTAYADSVKGRFTISRDNSKNTLYLQMNSLRAEDTAVYYCARDPWSTEGSFFVLDYWGQGTLVTVSS VL: EIVLTQSPATLSLSPGERATLSCRASQSVDDDLAWYQQKPGQAPRLLIYDASNRATGIPARFSGSGSGTDFTLTISSLEPEDFAVYYCQQYIDAPLTFGQGTKVEIK | 0.28 | 2.52 | 0.037 | 0.000264 | 7.2e+06 | 0.033 | 0.000299 | 9.16e+06
STLM215 (antibody, V domains shown, frameworks VH3-23 / Vk-L6) VH: EVQLLESGGGLVQPGGSLRLSCAASGFTFSSYDMFWVRQAPGKGLEWVSAIAGEGGRTYYADSVKGRFTISRDNSKNTLYLQMNSLRAEDTAVYYCARDPWSTEGSFFVLDYWGQGTLVTVSS VL: EIVLTQSPATLSLSPGERATLSCRASQSVDDDLAWYQQKPGQAPRLLIYDASNRATGIPARFSGSGSGTDFTLTISSLEPEDFAVYYCQQYIGAPITFGQGTKVEIK | 0.29 | 1.3 | 0.01 | 0.000369 | 3.54e+07 | 0.025 | 0.000172 | 6.91e+06
STLM213 (antibody, V domains shown, frameworks VH3-23 / Vk-L6) VH: EVQLLESGGGLVQPGGSLRLSCAASGFTFSFYDMIWVRQAPGKGLEWVSTIRGEGGDTNYADSVKGRFTISRDNSKNTLYLQMNSLRAEDTAVYYCARDPWSTEGSFFVLDYWGQGTLVTVSS VL: EIVLTQSPATLSLSPGERATLSCRASQSVDDDLAWYQQKPGQAPRLLIYDASNRATGIPARFSGSGSGTDFTLTISSLEPEDFAVYYCQQYIDAPLTFGQGTKVEIK | 0.34 | 0.49 | 0.008 | 0.000124 | 1.64e+07 | 0.014 | 0.000108 | 7.54e+06

More lines, now with the values ahead:

IC50 [1] [µg/mL] | RGA IC50 [2] [µg/mL] | Kd [3] [nM] | koff [3] [s⁻¹] | kon [3] [M⁻¹ s⁻¹] | Kd [4] [nM] | koff [4] [s⁻¹] | kon [4] [M⁻¹ s⁻¹] | Binder
0.3 | 1.86 | 0.003 | 0.000264 | 7.89e+07 | 0.016 | 0.000158 | 9.63e+06 | STLM216 (antibody, V domains shown, frameworks VH3-23 / Vk-L6) VH: EVQLLESGGGLVQPGGSLRLSCAASGFTFSSYDMFWVRQAPGKGLEWVSDIKGEGGATNYADSVKGRFTISRDNSKNTLYLQMNSLRAEDTAVYYCARDPWSTEGSFFVLDYWGQGTLVTVSS VL: EIVLTQSPATLSLSPGERATLSCRASQSVDDDLAWYQQKPGQAPRLLIYDASNRATGIPARFSGSGSGTDFTLTISSLEPEDFAVYYCQQYIGAPITFGQGTKVEIK
0.25 | 1.88 | 0.029 | 0.000345 | 1.18e+07 | 0.037 | 0.000301 | 8.22e+06 | STLM222 (antibody, V domains shown, frameworks VH3-23 / Vk-L6) VH: EVQLLESGGGLVQPGGSLRLSCAASGFTFSIYSMFWVRQAPGKGLEWVSDIGGEGGGTSYADSVKGRFTISRDNSKNTLYLQMNSLRAEDTAVYYCARDPWSTEGSFFVLDYWGQGTLVTVSS VL: EIVLTQSPATLSLSPGERATLSCRASQSVDDDLAWYQQKPGQAPRLLIYDASNRATGIPARFSGSGSGTDFTLTISSLEPEDFAVYYCQQYIGAPITFGQGTKVEIK
0.49 | 1.69 | 0.004 | 0.000138 | 3.81e+07 | 0.017 | 0.000126 | 7.27e+06 | STLM217 (antibody, V domains shown, frameworks VH3-23 / Vk-L6) VH: EVQLLESGGGLVQPGGSLRLSCAASGFTFSVYDMFWVRQAPGKGLEWVSDIKGEGGETSYADSVKGRFTISRDNSKNTLYLQMNSLRAEDTAVYYCARDPWSTEGSFFVLDYWGQGTLVTVSS VL: EIVLTQSPATLSLSPGERATLSCRASQSVDDDLAWYQQKPGQAPRLLIYDASNRATGIPARFSGSGSGTDFTLTISSLEPEDFAVYYCQQYIGAPITFGQGTKVEIK
0.42 | 1.33 | 0.018 | 0.000265 | 1.45e+07 | 0.023 | 0.000224 | 9.89e+06 | STLM218 (antibody, V domains shown, frameworks VH3-23 / Vk-L6) VH: EVQLLESGGGLVQPGGSLRLSCAASGFTFSVDSMFWVRQAPGKGLEWVSSIEGNGGATYYADSVKGRFTISRDNSKNTLYLQMNSLRAEDTAVYYCARDPWSTEGSFFVLDYWGQGTLVTVSS VL: EIVLTQSPATLSLSPGERATLSCRASQSVDDDLAWYQQKPGQAPRLLIYDASNRATGIPARFSGSGSGTDFTLTISSLEPEDFAVYYCQQYIGAPITFGQGTKVEIK
0.29 | 3.16 | 0.022 | 0.00023 | 1.07e+07 | 0.027 | 0.000201 | 7.54e+06 | STLM219 (antibody, V domains shown, frameworks VH3-23 / Vk-L6) VH: EVQLLESGGGLVQPGGSLRLSCAASGFTFSGYDMFWVRQAPGKGLEWVSDIGGEGGSTNYADSVKGRFTISRDNSKNTLYLQMNSLRAEDTAVYYCARDPWSTEGSFFVLDYWGQGTLVTVSS VL: EIVLTQSPATLSLSPGERATLSCRASQSVDDDLAWYQQKPGQAPRLLIYDASNRATGIPARFSGSGSGTDFTLTISSLEPEDFAVYYCQQYIGAPITFGQGTKVEIK
0.39 | 2.79 | 0.022 | 0.00013 | 6.04e+06 | 0.035 | 9.61e-05 | 2.73e+06 | STLM221 (antibody, V domains shown, frameworks VH3-23 / Vk-L6) VH: EVQLLESGGGLVQPGGSLRLSCAASGFTFSIYDMFWVRQAPGKGLEWVSYIRGEGGDTNYADSVKGRFTISRDNSKNTLYLQMNSLRAEDTAVYYCARDPWSTEGSFFVLDYWGQGTLVTVSS VL: EIVLTQSPATLSLSPGERATLSCRASQSVDDDLAWYQQKPGQAPRLLIYDASNRATGIPARFSGSGSGTDFTLTISSLEPEDFAVYYCQQYIGAPITFGQGTKVEIK
